From US20220133863A1 (SHIRE HUMAN GENETIC THERAPIES, published 2022)

What was measured:
[1] = target: the molecule itself; experiment: X-ray crystal structure; self-association (homotrimer)
Method: The crystals (FIG. 8) were obtained from rhNaglu protein purified from culture media treated with mannosidase-I inhibitor, Kifunensine. Naglu Kif contains identical protein sequences as rhNaglu, but different glycosylation pattern. The crystals acquired of Naglu Kif were grown at pH=7.5 and the structure of Naglu Kif was solved at 2.4 Å resolution by X-ray crystallography. Naglu structure (FIG. 9) is identified as having three distinct domains, a N-terminal domain (Domain-I, aa 24-126) followed by a (a/(3)8 barrel domain containing the catalytic glutamates (Domain-II, aa 127-467) and an all helical C-terminal domain (Domain-III, aa 468-743). Similar domain structure has been observed for another Glycoside Hydrolase family-89 protein, cpGH89, a bacterial homolog of Naglu (Ficko-Blean E, et al., PNAS May 6, 2008 vol. 105 no. 18 6560-6565). The active site is at a cleft between domains II and III and the catalytic residues are identified as E316 and E446 located on domain II.

[2] = target: the molecule itself; experiment: SEC-MALS and analytical ultracentrifugation; self-association (homotrimer)

B1: Naglu-Kif (enzyme)
chain: DEAREAAAVRALVARLLGPGPAADFSVSVERALAAKPGLDTYSLGGGGAARVRVRGSTGVAAAAGLHRYLRDFCGCHVAWSGSQLRLPRPLPAVPGELTEATPNRYRYYQNVCTQSYSFVWWDWARWEREIDWMALNGINLALAWSGQEAIWQRVYLALGLTQAEINEFFTGPAFLAWGRMGNLHTWDGPLPPSWHIKQLYLQHRVLDQMRSFGMTPVLPAFAGHVPEAVTRVFPQVNVTKMGSWGHFNCSYSCSFLLAPEDPIFPIIGSLFLRELIKEFGTDHIYGADTFNEMQPPSSEPSYLAAATTAVYEAMTAVDTEAVWLLQGWLFQHQPQFWGPAQIRAVLGAVPRGRLLVLDLFAESQPVYTRTASFQGQPFIWCMLHNFGGNHGLFGALEAVNGGPEAARLFPNSTMVGTGMAPEGISQNEVVYSLMAELGWRKDPVPDLAAWVTSFAARRYGVSHPDAGAAWRLLLRSVYNCSGEACRGHNRSPLVRRPSLQMNTSIWYNRSDVFEAWRLLLTSAPSLATSPAFRYDLLDLTRQAVQELVSLYYEEARSAYLSKELASLLRAGGVLAYELLPALDEVLASDSRFLLGSWLEQARAAAVSEAEADFYEQNSRYQLTLWGPEGNILDYANKQLAGLVANYYTPRWRLFLEALVDSVAQGIPFQQHQFDKNVFQLEQAFVLSKQRYPSQPRGDTVDLAKKIFLKYYPRWVAGSW
modifications: mostly high mannose glycans (produced with Kifunensine in the medium); N-glycans at N261, N272, N435, N503, N526 and N532 (precursor numbering)
notes: This is the protein that was crystallised (2.4 A)
binding result [1]: binds

B2: recombinant human Naglu (enzyme)
chain: B1 chain
modifications: glycosylated; lacks mannose-6-phosphate glycan
notes: also called rhNaglu; alpha-N-acetyl-glucosaminidase
binding result [2]: binds

B3: recombinant Naglu-IGFII fusion protein (enzyme)
chain: DEAREAAAVRALVARLLGPGPAADFSVSVERALAAKPGLDTYSLGGGGAARVRVRGSTGVAAAAGLHRYLRDFCGCHVAWSGSQLRLPRPLPAVPGELTEATPNRYRYYQNVCTQSYSFVWWDWARWEREIDWMALNGINLALAWSGQEAIWQRVYLALGLTQAEINEFFTGPAFLAWGRMGNLHTWDGPLPPSWHIKQLYLQHRVLDQMRSFGMTPVLPAFAGHVPEAVTRVFPQVNVTKMGSWGHFNCSYSCSFLLAPEDPIFPIIGSLFLRELIKEFGTDHIYGADTFNEMQPPSSEPSYLAAATTAVYEAMTAVDTEAVWLLQGWLFQHQPQFWGPAQIRAVLGAVPRGRLLVLDLFAESQPVYTRTASFQGQPFIWCMLHNFGGNHGLFGALEAVNGGPEAARLFPNSTMVGTGMAPEGISQNEVVYSLMAELGWRKDPVPDLAAWVTSFAARRYGVSHPDAGAAWRLLLRSVYNCSGEACRGHNRSPLVRRPSLQMNTSIWYNRSDVFEAWRLLLTSAPSLATSPAFRYDLLDLTRQAVQELVSLYYEEARSAYLSKELASLLRAGGVLAYELLPALDEVLASDSRFLLGSWLEQARAAAVSEAEADFYEQNSRYQLTLWGPEGNILDYANKQLAGLVANYYTPRWRLFLEALVDSVAQGIPFQQHQFDKNVFQLEQAFVLSKQRYPSQPRGDTVDLAKKIFLKYYPRWVAGSWGAPGGGGGAAAAAGGGGGGAPGGGGGAAAAAGGGGGGAPGGGGGAAAAAGGGGGGAPLCGGELVDTLQFVCGDRGFYFSRPASRVSRRSRGIVEECCFRSCDLALLETYCATPAKSE
modifications: glycosylated; negative for M6P glycosylation
notes: Secreted from HT1080 cells
binding result [2]: binds
